Data reported in the supplement of paper PMC9876800.

Test system: peptide library, one residue held at a place counted from the S/T acceptor
Assay: relative phosphorylation of the sub-library (ratio to the mean residue at this position); higher = residue favoured
Details: human
Outline: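 Purified recombinant kinases, either human or orthologue constructs, were incubated in 384-well plates with biotinylated degenerate peptide sub-libraries. Each sub-library fixed one residue at one position around a central Ser/Thr. Peptides at 50 μM and 50 μM ATP spiked with γ-32P-ATP were used for 90 min under kinase-specific conditions, and spots on streptavidin membranes were phosphorimaged and quantified by densitometry. Relative sub-library phosphorylation is expressed as a ratio to the mean residue at that position.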

Sequence of CSNK1G2, construct: aa43-353 (P78368 43-353, looked up): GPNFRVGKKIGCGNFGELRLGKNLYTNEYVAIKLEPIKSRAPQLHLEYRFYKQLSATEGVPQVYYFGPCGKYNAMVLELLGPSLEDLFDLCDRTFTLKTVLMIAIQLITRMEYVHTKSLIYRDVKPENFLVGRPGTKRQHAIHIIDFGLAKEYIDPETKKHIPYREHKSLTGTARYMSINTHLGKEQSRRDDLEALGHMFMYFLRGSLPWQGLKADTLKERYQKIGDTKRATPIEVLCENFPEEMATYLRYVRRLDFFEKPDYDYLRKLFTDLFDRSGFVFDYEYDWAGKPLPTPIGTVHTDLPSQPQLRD
Sequence of CHUK, construct: Full length (O15111 whole entry, looked up): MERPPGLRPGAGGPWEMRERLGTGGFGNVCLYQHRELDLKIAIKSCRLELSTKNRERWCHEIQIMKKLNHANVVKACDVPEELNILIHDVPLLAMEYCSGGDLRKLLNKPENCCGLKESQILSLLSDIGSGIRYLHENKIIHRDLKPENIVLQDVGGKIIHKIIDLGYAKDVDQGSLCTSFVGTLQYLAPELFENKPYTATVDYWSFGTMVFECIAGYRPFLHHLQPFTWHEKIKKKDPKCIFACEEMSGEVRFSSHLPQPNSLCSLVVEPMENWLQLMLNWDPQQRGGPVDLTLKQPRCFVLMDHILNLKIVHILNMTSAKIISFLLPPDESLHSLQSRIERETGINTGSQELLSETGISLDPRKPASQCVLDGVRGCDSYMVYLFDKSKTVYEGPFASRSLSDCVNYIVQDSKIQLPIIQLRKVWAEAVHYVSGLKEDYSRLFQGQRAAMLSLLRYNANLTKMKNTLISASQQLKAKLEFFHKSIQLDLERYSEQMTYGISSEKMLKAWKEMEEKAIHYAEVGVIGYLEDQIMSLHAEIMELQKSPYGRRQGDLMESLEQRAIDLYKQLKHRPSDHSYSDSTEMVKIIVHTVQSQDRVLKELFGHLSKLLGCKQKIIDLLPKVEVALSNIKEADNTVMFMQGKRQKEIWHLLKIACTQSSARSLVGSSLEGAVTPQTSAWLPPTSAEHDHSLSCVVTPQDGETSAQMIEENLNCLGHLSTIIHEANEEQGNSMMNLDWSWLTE
Sequence of STK25, construct: Full length (O00506 whole entry, looked up): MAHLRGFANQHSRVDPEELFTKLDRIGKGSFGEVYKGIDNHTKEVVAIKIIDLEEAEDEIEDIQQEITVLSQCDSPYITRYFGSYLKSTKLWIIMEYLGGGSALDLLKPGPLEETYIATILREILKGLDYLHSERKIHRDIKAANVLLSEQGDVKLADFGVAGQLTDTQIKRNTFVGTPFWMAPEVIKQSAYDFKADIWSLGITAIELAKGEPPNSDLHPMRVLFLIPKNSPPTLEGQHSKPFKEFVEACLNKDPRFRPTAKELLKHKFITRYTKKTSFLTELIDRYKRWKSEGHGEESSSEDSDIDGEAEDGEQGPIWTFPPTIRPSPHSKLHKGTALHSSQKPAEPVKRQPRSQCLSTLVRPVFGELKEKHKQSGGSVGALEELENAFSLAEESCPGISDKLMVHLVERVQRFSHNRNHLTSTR
Sequence of MAP4K1, construct: Full length (Q92918 whole entry, looked up): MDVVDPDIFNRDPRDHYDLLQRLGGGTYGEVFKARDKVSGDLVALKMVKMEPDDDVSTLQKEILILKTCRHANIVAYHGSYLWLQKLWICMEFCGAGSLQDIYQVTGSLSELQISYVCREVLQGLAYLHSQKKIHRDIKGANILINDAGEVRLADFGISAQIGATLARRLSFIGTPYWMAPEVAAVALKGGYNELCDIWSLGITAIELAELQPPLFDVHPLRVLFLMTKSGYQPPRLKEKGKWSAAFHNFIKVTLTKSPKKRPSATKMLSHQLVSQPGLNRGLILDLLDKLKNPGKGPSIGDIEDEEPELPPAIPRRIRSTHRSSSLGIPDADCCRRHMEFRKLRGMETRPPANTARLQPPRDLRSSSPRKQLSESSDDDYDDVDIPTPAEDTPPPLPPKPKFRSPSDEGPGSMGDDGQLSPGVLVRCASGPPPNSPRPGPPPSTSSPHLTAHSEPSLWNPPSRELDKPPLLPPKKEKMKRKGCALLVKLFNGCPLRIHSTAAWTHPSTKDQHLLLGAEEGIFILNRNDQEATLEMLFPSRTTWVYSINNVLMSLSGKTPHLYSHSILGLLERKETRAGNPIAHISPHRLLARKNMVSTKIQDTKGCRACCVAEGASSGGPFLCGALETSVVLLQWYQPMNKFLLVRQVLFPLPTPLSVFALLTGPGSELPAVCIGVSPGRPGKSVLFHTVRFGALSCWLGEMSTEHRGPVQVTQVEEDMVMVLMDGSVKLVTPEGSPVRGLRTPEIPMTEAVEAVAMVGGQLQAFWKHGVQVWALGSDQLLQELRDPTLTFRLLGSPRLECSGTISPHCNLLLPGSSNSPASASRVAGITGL

MAP4K1, construct: Full length (from UniProt Q92918)
relative phosphorylation
Details	at +1	at +2	at +3	at +4	at -1	at -2	at -3	at -4	at -5
A fixed	0.465	0.82	0.882	0.928	0.991	1.1	0.946	0.951	1.07
D fixed	0.192	0.786	0.471	0.756	0.585	0.362	0.52	0.653	0.679
E fixed	0.199	0.706	0.454	0.629	0.441	0.302	0.487	0.699	0.613
F fixed	1.23	0.581	0.893	0.879	0.987	1.36	0.908	1.14	1.11
G fixed	0.58	0.957	0.933	1.13	1.79	1.06	1.21	1.29	1.15
H fixed	0.575	1.13	1.04	1.08	1.37	1.36	1.3	1.08	1.07
I fixed	1.91	0.442	0.571	0.806	0.342	0.646	0.545	0.706	0.763
K fixed	0.56	2.51	1.8	1.65	1.24	1.11	1.93	1.26	1.49
L fixed	3.52	0.604	0.724	0.863	1.17	0.667	0.694	0.798	0.746
M fixed	2.94	0.695	0.763	0.861	1.26	0.794	0.823	0.896	0.934
N fixed	0.442	0.974	0.925	0.978	1.3	0.931	0.928	0.849	0.88
P fixed	0.396	1.17	1.13	1.02	0.534	0.62	0.766	0.955	1.09
Q fixed	0.5	0.869	0.837	0.958	0.745	0.679	0.904	0.888	0.83
R fixed	0.573	2.9	2.98	1.62	1.62	1.6	2.01	1.39	1.34
V fixed	0.584	0.521	0.654	0.815	0.438	0.798	0.634	0.828	0.895
W fixed	1.45	0.627	0.991	1.14	0.909	1.51	1.28	1.37	1.15
Y fixed	0.877	0.706	0.942	0.887	1.27	2.1	1.11	1.24	1.2
pThr fixed	1.32	1.33	1.14	0.786	0.699	1.1	1.22	1.25	1.32
pTyr fixed	0.373	0.593	0.669	0.602	0.86	0.653	0.977	0.948	1.04

CHUK, construct: Full length (from UniProt O15111)
relative phosphorylation
Details	at +1	at +2	at +3	at +4	at -1	at -2	at -3	at -4	at -5
A fixed	0.486	0.954	0.902	0.978	0.716	1.1	0.777	1.15	1.29
D fixed	0.518	1.23	1.9	1.66	1.19	0.571	1.27	2.17	2.57
E fixed	0.61	1.26	2.02	1.55	1.11	1.1	1.53	2.15	2.29
F fixed	1.22	0.635	0.576	0.717	0.688	2	0.809	0.602	0.657
G fixed	1.18	1.55	1.48	1.43	0.615	0.548	1.12	1.55	1.4
H fixed	1.01	1.34	1.14	1.17	1.17	1.23	1.15	0.888	1.12
I fixed	1.94	0.78	0.548	0.769	0.346	0.874	0.365	0.49	0.395
K fixed	0.28	0.408	0.358	0.746	1.5	0.25	0.875	0.417	0.556
L fixed	1.68	0.726	0.688	0.724	0.702	1.59	0.408	0.552	0.548
M fixed	1.86	0.982	0.772	0.918	0.962	1.06	0.784	0.79	0.591
N fixed	0.931	1.9	1.28	1.17	1.58	1.35	1.69	1.17	1.22
P fixed	0.282	1.12	1.16	1.24	1.54	0.68	2.06	1.87	0.981
Q fixed	0.729	1.25	1.24	1.13	1.47	0.804	1.18	0.978	0.889
R fixed	0.162	0.27	0.26	0.177	0.641	0.176	0.728	0.314	0.476
V fixed	1.46	1.1	0.636	0.667	0.688	0.644	0.567	0.547	0.664
W fixed	1.29	0.756	1.04	0.978	0.784	0.663	0.704	0.693	0.791
Y fixed	1.36	0.75	1.01	0.977	1.31	2.36	0.991	0.68	0.562
pThr fixed	0.978	1.06	1.08	1.62	0.755	1.24	1.4	1.56	1.06
pTyr fixed	1.1	1.25	0.908	1.08	1.55	5.95	2.02	1.32	0.984

CSNK1G2, construct: aa43-353 (from UniProt P78368)
relative phosphorylation
Details	at +1	at +2	at +3	at +4	at -1	at -2	at -3	at -4	at -5
A fixed	0.721	0.84	0.944	0.864	1.07	1.17	0.642	1.13	0.845
D fixed	0.589	0.43	1.14	1.31	1.52	1.2	4.54	1.46	2.48
E fixed	1	0.999	0.339	1.25	2.85	4.44	2.79	1.85	1.89
F fixed	0.973	1.33	1.29	0.996	0.834	0.524	0.55	0.896	0.82
G fixed	0.636	0.516	1.23	0.746	0.797	0.686	0.705	0.767	0.79
H fixed	0.986	1.21	1.59	0.806	0.904	0.682	0.652	0.861	0.886
I fixed	1.88	1.32	1.08	0.961	0.902	0.666	0.465	0.694	0.875
K fixed	0.517	0.942	0.54	0.702	0.774	0.659	0.891	0.877	0.968
L fixed	1.55	0.605	0.944	1	1.02	0.656	0.458	0.842	0.76
M fixed	1.36	1.3	1.09	1.03	0.484	0.594	0.561	0.817	0.799
N fixed	0.672	0.875	0.732	0.797	0.807	1.18	0.766	0.858	0.859
P fixed	0.44	0.537	0.738	0.947	0.965	0.876	0.577	1.05	0.745
Q fixed	0.592	0.618	0.61	0.936	1.03	1.04	0.707	1.03	1
R fixed	0.813	0.996	0.687	0.684	1.11	0.695	0.895	1.02	0.961
V fixed	1.94	1.46	1.29	1.17	0.766	0.813	0.44	0.733	0.686
W fixed	0.852	1.34	1.27	1.35	0.589	0.5	0.652	1.15	0.821
Y fixed	1.47	1.68	1.49	1.45	0.569	0.619	0.711	0.971	0.816
pThr fixed	1.33	1.36	2.58	3.98	3.89	9.46	62.6	8.08	4.7
pTyr fixed	2.52	5.33	19.2	6.91	2.93	6.96	8.28	6.71	6.32

STK25, construct: Full length (from UniProt O00506)
relative phosphorylation
Details	at +1	at +2	at +3	at +4	at -1	at -2	at -3	at -4	at -5
A fixed	0.561	0.853	0.857	0.981	0.996	1.07	0.986	1	1.24
D fixed	0.151	0.326	0.447	0.515	0.772	0.464	0.671	0.752	0.774
E fixed	0.166	0.195	0.404	0.454	0.538	0.398	0.604	0.865	0.682
F fixed	1.28	0.564	1.01	0.718	0.756	1.19	0.875	0.975	0.922
G fixed	0.443	1.13	1.17	1.12	1.98	1.26	1.27	1.1	1.21
H fixed	0.884	1.24	1.07	1.2	1.3	1.43	1.24	1.11	1.15
I fixed	1.87	0.572	0.895	0.845	0.453	0.86	0.777	0.775	0.801
K fixed	0.669	2.4	1.64	2.01	1.23	1.04	1.31	1.28	1.52
L fixed	1.56	0.486	0.865	0.743	0.901	0.791	0.844	0.8	0.758
M fixed	1.89	0.735	0.926	0.822	1.14	0.879	0.974	0.99	0.899
N fixed	0.474	1.08	0.985	0.919	1.26	1.01	1.13	1.03	0.902
P fixed	0.175	0.616	0.787	1.11	0.599	0.693	0.876	0.871	1
Q fixed	0.683	0.785	0.819	0.856	0.795	0.773	0.865	0.868	0.846
R fixed	0.947	3.75	2.26	2.19	1.66	1.25	1.38	1.3	1.38
V fixed	1.59	0.626	0.829	0.718	0.462	0.78	0.711	0.849	0.848
W fixed	2.17	0.772	0.979	0.943	0.862	1.33	1.26	1.25	1.02
Y fixed	1.48	0.872	1.06	0.852	1.3	1.79	1.23	1.18	1.05
pThr fixed	0.459	0.376	0.534	0.435	0.45	0.615	0.774	0.98	0.918
pTyr fixed	0.327	0.223	0.456	0.372	0.866	0.691	0.858	0.837	0.866
